The series relates to Saccharomyces cerevisiae. As to the kind of experiment: protein stability index of tFT-peptide fusion (C-terminal peptide) (PSI (0-1 scale)); higher = more stable (slower turnover). The settings on record: temperature: 30 C. How it is done: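 MPS profiling in S. cerevisiae of the yeast C-terminome library: the last 12 aa of each annotated ORF are fused to the C-terminus of a sfGFP-mCherry timer, after a GGGS linker. Cells are FACS-sorted into 8 mCherry/sfGFP bins and deep-sequenced. PSI runs from 0 (unstable) to 1 (stable); wild type and das1Δ backgrounds, two technical replicates each.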

Setting [1] is: genetic background: das1 deletion.

± gives the standard deviation of the averaged measurements.

For KRYTVKKALAKA [RPL14A C-terminal 12 aa], the protein stability index turned out to be 0.6258 ± 0.0061 under setting [1] and 0.627 ± 0.013 (genetic background: wild type).
For KSADPDAMDTTE [RVB2 C-terminal 12 aa], in that order: 0.702 ± 0.016 and 0.695 ± 0.021.
Regarding KSAKATKASQEL [HTA1 C-terminal 12 aa], the protein stability index reads like this: under setting [1], 0.691 ± 0.011; (genetic background: wild type) 0.675 ± 0.045.
KSEIDTLKQDQK [TYE7 C-terminal 12 aa]: the protein stability index by setting is: under setting [1], 0.656 ± 0.011; (genetic background: wild type) 0.6659 ± 0.0018.
The corresponding values for KTATTLPGRRFV [LUC7 C-terminal 12 aa] are 0.6923 ± 0.0011 and 0.704 ± 0.017.
The corresponding values for KVHRKKVPGCTI [YGR011W C-terminal 12 aa] are 0.697 ± 0.015 and 0.686 ± 0.029.
The corresponding values for KVIFKDRPLPIM [CTF8 C-terminal 12 aa] are 0.643 ± 0.032 and 0.611 ± 0.012.
KVYDELKKQGLV [PRP9 C-terminal 12 aa]: the protein stability index was 0.693 ± 0.017 under setting [1] and 0.676 ± 0.0062 (genetic background: wild type).
For KYNSQKRATTPA [COQ4 C-terminal 12 aa], in that order: 0.712 ± 0.027 and 0.6698 ± 0.0039.
For LAFRAHTMPNAP [ATO3 C-terminal 12 aa], in that order: 0.699 ± 0.0097 and 0.694 ± 0.033.
For LATWDKQGNLKY [SRN2 C-terminal 12 aa], in that order: 0.724 ± 0.012 and 0.696 ± 0.026.
In the case of LCLLESLDCLAK [PMT7 C-terminal 12 aa], the protein stability index under setting [1] amounted to 0.6692 ± 0.0024 and the protein stability index (genetic background: wild type) worked out at 0.68 ± 0.017.
The corresponding values for LCPVFFTWTNLR [YSR3 C-terminal 12 aa] are 0.656 ± 0.008 and 0.656 ± 0.034.
For LDKEMADYFEKK [YRA1 C-terminal 12 aa], in that order: 0.693 ± 0.013 and 0.706 ± 0.035.
For LEDHTPPEDKPN [QCR10 C-terminal 12 aa], in that order: 0.718 ± 0.021 and 0.695 ± 0.0076.
The sequence LEEFLVRGTNNQ [ATP25 C-terminal 12 aa] came in with a protein stability index under setting [1] of 0.711 ± 0.018 and a protein stability index (genetic background: wild type) of 0.663 ± 0.012.
Consider LEEPYKPQRQRC [YPL088W C-terminal 12 aa], for which the protein stability index under setting [1] worked out at 0.6798 ± 0.0049 and the protein stability index (genetic background: wild type) amounted to 0.718 ± 0.0087.
For LFTCTDPNDTIE [MMS4 C-terminal 12 aa], in that order: 0.721 ± 0.027 and 0.72 ± 0.03.
Turning to LFVTDGSLLLDL [EDC3 C-terminal 12 aa], the protein stability index under setting [1] worked out at 0.703 ± 0.014 and the protein stability index (genetic background: wild type) came to 0.685 ± 0.032.
The corresponding values for “LGMINTVVSLDR [YBR221W-A C-terminal 12 aa]” are 0.691 ± 0.022 and 0.672 ± 0.04.
For LIAEILLARNLI [HOM2 C-terminal 12 aa], in that order: 0.71 ± 0.0084 and 0.662 ± 0.007.
The corresponding values for LIGFGNQVSKAL [BUD25 C-terminal 12 aa] are 0.703 ± 0.03 and 0.723 ± 0.027.
Consider “LISCCCCCFRRC [YNL097W-A C-terminal 12 aa]”, for which the protein stability index under setting [1] turned out to be 0.6974 ± 0.004 and the protein stability index (genetic background: wild type) is 0.669 ± 0.016.
For LKAVCPPDAGFA [YOR387C C-terminal 12 aa], in that order: 0.7086 ± 0.0046 and 0.7462 ± 0.0071.
The corresponding values for LKHFIKVFSSKL [ARR1 C-terminal 12 aa] are 0.825 ± 0.013 and 0.89 ± 0.024.
LKITDDLARKGF [TGL2 C-terminal 12 aa] showed a protein stability index under setting [1] of 0.7205 ± 0.0035 and a protein stability index (genetic background: wild type) of 0.666 ± 0.0096.
The corresponding values for LKKKLYTLEQKK [KEL2 C-terminal 12 aa] are 0.694 ± 0.02 and 0.6241 ± 0.0031.
For the sequence LKLNHSFATIFK [MCM21 C-terminal 12 aa], the protein stability index was 0.684 ± 0.018 under setting [1] and 0.677 ± 0.024 (genetic background: wild type).

The record behind these values is the supplement of paper PMC10724198.
